In patent publication US20120117670A1 (U3 PHARMA, published 2012):
Residue numbers refer to the chain shown, from its start. In names and notes the source's numbering stands. One block for each binder: values may come before it.

Key:
[1] = target: T1, Human AXL-Fc (R&D Systems, #154-AL) (human, UniProt P30530 26-451); test: ELISA on plate-adsorbed human AXL-Fc (1 ug/ml), 5-fold antibody dilution series, AP-conjugated goat anti-human IgG, fluorescent substrate (Example 14)
T1 construct: Bought reagent; also called human AXL-Fc fusion protein; human AXL-Fc protein; not shown: Fc part of the bought fusion protein
T1 sequence: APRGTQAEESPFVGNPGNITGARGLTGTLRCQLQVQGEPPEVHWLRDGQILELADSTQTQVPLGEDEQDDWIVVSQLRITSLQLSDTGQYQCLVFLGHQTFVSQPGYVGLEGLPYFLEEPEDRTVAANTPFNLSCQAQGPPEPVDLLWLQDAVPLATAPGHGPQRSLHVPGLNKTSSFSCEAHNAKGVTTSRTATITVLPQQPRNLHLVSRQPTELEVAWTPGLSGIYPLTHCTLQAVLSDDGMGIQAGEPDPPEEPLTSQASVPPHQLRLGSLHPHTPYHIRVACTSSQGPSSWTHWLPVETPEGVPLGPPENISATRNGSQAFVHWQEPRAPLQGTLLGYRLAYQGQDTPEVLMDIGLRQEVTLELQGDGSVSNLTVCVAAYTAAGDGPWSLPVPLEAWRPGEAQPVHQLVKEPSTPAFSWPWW

[2] = target: T1, Human AXL-Fc (R&D Systems, #154-AL); test: ELISA on plate-adsorbed human AXL-Fc (1 ug/ml), 5-fold antibody dilution series, AP-conjugated goat anti-human IgG, fluorescent substrate (Example 13)
[3] = target: T1, Human AXL-Fc (R&D Systems, #154-AL); test: as above; remark: listed apart in the source
[4] = target: T1, Human AXL-Fc (R&D Systems, #154-AL); test: ELISA on plate-adsorbed human AXL-Fc (1 ug/ml), 5-fold antibody dilution series, AP-conjugated goat anti-human IgG, fluorescent substrate (Example 23)

B1: h#11D5-T5 (antibody, human IgG1, kappa)
heavy: not shown
light: DIQMTQSPSSLSASVGDRVTITCRASQDIGNYLSWFQQKPGKAPRRMIYGAIKLAVGVPSRFSGSGSGTDYTLTISSLQPEDFATYYCLQYIQFPLTFGGGTKVEIKRTVAAPSVFIFPPSDEQLKSGTASVVCLLNNFYPREAKVQWKVDNALQSGNSQESVTEQDSKDSTYSLSSTLTLSKADYEKHKVYACEVTHQGLSSPVTKSFNRGEC
notes: Humanized IgG1/kappa
EC50 (read off the curve) [1]: ~0.01 µg/mL

B5: h#11B7-T3 (antibody, human IgG1, kappa, V domains shown)
VH: QVQLQESGPGLVKPSQTLSLTCAVSGYSITSNYWGWIRKPPGDGLEWMGYITYSGSTSYNPSLKSRISITRDTSKNQFSLKLSSVTAADTAVYYCAITTFYYWGQGTLVTVSS
VL: DIQMTQSPSSLSASVGDRVTITCRASQDIGNYLRWFQQKPGKAPKLMISGATNLAAGVPSRFSGSRSGSDYTLTISSLQPEDFATYYCLQSKESPWTFGGGTKVEIKR
notes: Humanized IgG1/kappa
EC50 (read off the curve) [2]: ~0.02 µg/mL

B6: h#11B7-T2 (antibody, human IgG1, kappa, V domains shown)
VH: B5 VH with V2I, K39Q, D43K, T70S, R71V
VL: B5 VL with S65T, R66G, S69T, L73F
notes: Humanized IgG1/kappa
EC50 (read off the curve) [2]: ~0.03 µg/mL

B7: h#11B7-T27 (antibody, human IgG1, kappa)
heavy: not shown
light: DIQMTQSPSSLSASVGDRVTITCRASQDIGNYLRWYQQKPGKAPKLLISGATNLAAGVPSRFSGSGSGSDFTLTISSLQPEDFATYYCLQSKESPWTFGQGTKVEIKRTVAAPSVFIFPPSDEQLKSGTASVVCLLNNFYPREAKVQWKVDNALQSGNSQESVTEQDSKDSTYSLSSTLTLSKADYEKHKVYACEVTHQGLSSPVTKSFNRGEC
notes: Humanized IgG1/kappa
EC50 (read off the curve) [3]: ~0.02 µg/mL

B9: h#11B7-T4 (antibody, human IgG1, kappa)
heavy: not shown
light: B7 light with V104L
notes: Humanized IgG1/kappa
EC50 (read off the curve) [2]: ~0.06 µg/mL

B10: h#11B7-T5 (antibody, human IgG1, kappa)
heavy: not shown
light: B7 light with Y36F, L47M, F71Y, V104L
notes: Humanized IgG1/kappa
EC50 (read off the curve) [2]: ~0.02 µg/mL

B11: h#11B7-T26 (antibody, human IgG1, kappa, V domains shown)
VH: B5 VH with Q16E, A23T, K39Q, D43K, M48I, I67V, S68T, T70S
VL: B5 VL with F36Y, R66G, Y71F, G100Q
notes: Humanized IgG1/kappa
EC50 (read off the curve) [3]: ~0.03 µg/mL

B15: h#11B7-T6 (antibody, human IgG1, kappa)
heavy: not shown
light: B7 light with Y36F, L47M, F71Y
notes: Humanized IgG1/kappa
EC50 (read off the curve) [2]: ~0.02 µg/mL

More lines, now with the values ahead:

EC50 (read off the curve) [1]: ~0.01 µg/mL
B2: h#11D5-T4 (antibody, human IgG1, kappa, V domains shown)
VH: QVQLQQWGAGLLKPSETLSLTCTVSGYSITSNYWGWIRQPPGKGLEWIGHITNSGNTTYNPSLKSRVTISRDTSKNQFSLKLSSVTAADTAVYYCAKGAFDYWGQGTLVTVSS
VL: DIQMTQSPSSLSASVGDRVTITCRASQDIGNYLSWYQQKPGKAPKRLIYGAIKLAVGVPSRFSGSGSGTEFTLTISSLQPEDFATYYCLQYIQFPLTFGGGTKVEIKR
notes: Humanized IgG1/kappa

EC50 (read off the curve) [1]: ~0.01 µg/mL
B3: h#11D5-T6 (antibody, human IgG1, kappa)
heavy: not shown
light: B1 light with G100Q
notes: Humanized IgG1/kappa

EC50 (read off the curve) [1]: ~0.01 µg/mL
B4: h#11D5-T2 (antibody, human IgG1, kappa, V domains shown)
VH: EVQLQESGPGLVKPSQTLSLTCTVSGYSITSNYWGWIRQPPGMGLEWIGHITNSGNTTYNPSLKSRISISVDTSENQFSLKLSSVTPADTAVYYCAKGAFDYWGQGTLVTVSS
VL: B2 VL with Y36F, K45R, R46L, L47M, E70D, F71Y, G100Q, V104L
notes: Humanized IgG1/kappa

EC50 (read off the curve) [4]: ~0.04 µg/mL
B8: h#11B7-T30 (antibody, human IgG1, kappa)
heavy: not shown
light: B7 light with Y36F, F71Y, V104L
notes: Humanized IgG1/kappa

EC50 (read off the curve) [4]: ~0.04 µg/mL
B12: h#11B7-T28 (antibody, human IgG1, kappa)
heavy: not shown
light: B7 light with Y36F, F71Y, V104L
notes: Humanized IgG1/kappa

EC50 (read off the curve) [4]: ~0.04 µg/mL
B13: h#11B7-T31 (antibody, human IgG1, kappa)
heavy: not shown
light: B7 light with Y36F, V104L
notes: Humanized IgG1/kappa

EC50 (read off the curve) [4]: ~0.04 µg/mL
B14: h#11B7-T29 (antibody, human IgG1, kappa)
heavy: not shown
light: B7 light with Y36F, V104L
notes: Humanized IgG1/kappa

EC50 (read off the curve) [1]: ~0.02 µg/mL
B16: h#11D5-T1 (antibody, human IgG1, kappa, V domains shown)
VH: B4 VH with E1Q, I67V, S68T
VL: B2 VL with I2V, R46L, E70D, G100Q, V104L
notes: Humanized antibody of rat #11D5 made from pEF6KCL/h#11D5-T1L and pEF1/FCCU/h#11D5-T1H; also called T1 (humanized #11D5)

EC50 (read off the curve) [1]: ~0.02 µg/mL
B17: h#11D5-T3 (antibody, human IgG1, kappa, V domains shown)
VH: B4 VH with Q39K, P40F, M43N, G44K, L45M, V71R, E75K
VL: DIQMTQSPSSLSASVGDRVTITCRASQDIGNYLSWFQQKVGKSPRRMIYGAIKLAVGVPSRFSGSRSGSDYTLTISSLQPEDFAIYYCLQYIQFPLTFGSGTKLEIKR
notes: Humanized IgG1/kappa
